From US20220298229A1 (ICHOR BIOLOGICS, published 2022)

Key:
[1] = target: T1, ANDV glycoprotein (GPC), glycoproteins Gn and Gc of hantavirus strain Chile-9717869 (Andes Virus (hantavirus strain …, UniProt Q9E006 19-1138)); test: cell-based or functional assay
T1 sequence: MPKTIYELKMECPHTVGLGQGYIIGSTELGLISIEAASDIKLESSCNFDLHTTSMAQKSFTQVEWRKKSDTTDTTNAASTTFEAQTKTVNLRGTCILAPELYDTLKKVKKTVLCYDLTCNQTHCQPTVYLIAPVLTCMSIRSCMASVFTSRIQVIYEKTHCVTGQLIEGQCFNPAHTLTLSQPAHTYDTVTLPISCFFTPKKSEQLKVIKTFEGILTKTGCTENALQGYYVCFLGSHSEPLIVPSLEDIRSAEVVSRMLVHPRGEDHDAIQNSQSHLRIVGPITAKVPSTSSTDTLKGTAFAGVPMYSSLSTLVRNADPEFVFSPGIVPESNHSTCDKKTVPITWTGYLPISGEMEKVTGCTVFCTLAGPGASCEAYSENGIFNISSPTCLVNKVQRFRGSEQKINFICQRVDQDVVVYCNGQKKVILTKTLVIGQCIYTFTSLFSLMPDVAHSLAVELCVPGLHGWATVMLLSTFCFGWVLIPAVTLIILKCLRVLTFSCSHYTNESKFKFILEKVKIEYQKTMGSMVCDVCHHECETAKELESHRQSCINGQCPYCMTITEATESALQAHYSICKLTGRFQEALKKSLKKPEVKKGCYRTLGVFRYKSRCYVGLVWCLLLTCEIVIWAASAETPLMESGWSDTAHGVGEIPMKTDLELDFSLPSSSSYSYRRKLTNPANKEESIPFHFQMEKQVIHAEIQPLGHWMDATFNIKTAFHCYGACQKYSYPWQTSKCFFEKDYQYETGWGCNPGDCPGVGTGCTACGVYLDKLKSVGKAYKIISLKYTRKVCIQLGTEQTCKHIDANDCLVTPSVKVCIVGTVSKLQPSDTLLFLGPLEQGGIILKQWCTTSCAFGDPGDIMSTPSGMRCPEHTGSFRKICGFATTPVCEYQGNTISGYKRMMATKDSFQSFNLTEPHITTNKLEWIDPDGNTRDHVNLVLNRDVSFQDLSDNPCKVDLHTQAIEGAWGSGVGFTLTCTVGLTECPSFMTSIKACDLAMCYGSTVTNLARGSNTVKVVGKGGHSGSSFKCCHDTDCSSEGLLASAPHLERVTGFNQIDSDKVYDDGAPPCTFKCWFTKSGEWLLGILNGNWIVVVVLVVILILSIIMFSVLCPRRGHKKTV

[2] = target: T1, ANDV glycoprotein (GPC), glycoproteins …

B1: monoclonal antibody MIB22 (antibody, V domains shown)
VH: EVQLVQSGAELKKPGSSVKVSCKASGGTFVGYGVSWVRQVPGHGPEWMGGFSPISNTANYAERFQGRVTMIVDGSTSTAYMELRSLRSEDTAIYYCARSCDFWNAYYNNWFDPWGQGTLVTVSS
VL: AQSALTQPASVSGSPGQSITISCTGTSSDFADYNSVSWYQQHPGKAPKLLIFDVNDRPSGVSHRFSGSKSGNTASLTISGLQAEDESDYYCTSYTICNSYVFGTGTKVTVLG
notes: also called MIB22 IgG; first antibody
In the case of B1, the “neutralization capacity relative to JL16” value [1] is reported as 31 fold, the “potency of ANDV neutralization relative to polyclonal IgG from P10” value [1] is reported as 67 fold and the EC50 [2] is reported as 3.38 µg/mL.
